Source: patent publication US20240101687A1 (ABL BIO, published 2024)
“And” between values parts separate entries of the source, which are not always exact repeats. Identical values can stand only once. Blank lines part the entries; values can stand above or below the binder they belong to.

Experiments:
[1] = target: T1, human alpha-synuclein aggregates (fibrils) (human, UniProt P37840 1-140); assay: SPR (BIAcore), fibrils; table of results
Description: (§1) The running buffer, analyte dilution, and the sample dilution buffer were HBS-EP. […] For the capture, the monomer was for RU of 800 (theoretical), and a fibril was for RU of 100 (theoretical). The capture phase was performed at contact time of 60 seconds, a flow rate of 30 μl/min, and a stabilization period of 180 seconds. The association phase was performed at the association time of 120 seconds and the flow rate was 30 μl/min. The dissociation phase was performed at the dissociation time of 360 seconds and the flow rate of 30 l/min. The regeneration phase was performed twice time at the regeneration time of 240 seconds (primary) and 60 seconds (secondary) and a flow rate of 30 μl/min. The fitting was carried out suing 1:1 binding model, and the evaluation software was BIACore T200 Evaluation software (GE healthcare).

[2] = target: T1, human alpha-synuclein aggregates …; assay: sandwich ELISA, antibody coated at 1 ug/ml, alpha-synuclein fibril aggregates titrated
Description: ELISA analysis was performed to quantitatively analyze the binding affinity of the antibody of the present invention to the antigen. […] After washing with PBS, streptavidin conjugated with HRP and secondary antibody conjugate with biotin was treated and then reacted with TMB as a substrate.

[3] = target: T1, human alpha-synuclein aggregates …; assay: Octet (BLI), fibrils; table of results
Description: The target concentrations were 20 μg/ml for the monomer and 0.4 μg/ml for the fibril. The kinetics concentration was diluted sequentially two times from 50 nM for monomers and from 100 nM for fibrils, to give 7 points in total, respectively. Association/dissociation time was 5 min/20 min for monomer and 5 min/25 min for fibril. Biosensor was ARG2 and fitting was performed using 1:1 fitting model.

[4] = target: T1, human alpha-synuclein aggregates …; assay: SPR (BIAcore), antibody captured on Protein A chip, alpha-synuclein fibril (sample aSyn180330) as analyte, 1:1 binding fit, 25 C
Description: as §1

[5] = target: T1, human alpha-synuclein aggregates …; assay: sandwich ELISA, antibody coated in a dilution series, synuclein fibril aggregates at 2000 ng/ml; C of the 4-P fit, which paragraph 260 calls EC50
Description: Specifically, each antibody was diluted at 1/10 ratio of concentrations 0.04 to 400 nM and was coated on a 96-well plate, and then each well was treated with synuclein fibril aggregates were treated at 2000 ng/ml. After washing with 1×PBS, streptavidin conjugated with HRP and secondary antibody conjugate with biotin was treated and then reacted with TMB as a substrate. The absorbance was measured.

[6] = target: T1, human alpha-synuclein aggregates …; assay: BIAcore as in Example 4-3, α-syn aggregates
Description: as §1

[7] = target: T2, Tau protein aggregates (UniProt P10636-8 1-441, limits assumed); assay: dot blot
T2 construct: aggregates prepared by Prof; Seung-jae Lee; also called tau-derived aggregates

[8] = target: T1, human alpha-synuclein aggregates …; assay: SPR (BIAcore), antibody captured on Protein A chip, alpha-Syn fibril as analyte, 1:1 binding fit, 25 C
[9] = target: T3, Aβ42 (Monomer) (human, UniProt P05067); assay: dot blot, monomer and fibril of each protein spotted in rising amounts, antibody as probe
T3 construct: recombinant, monomer (not aggregated); m20 is the aggregated form; also called amyloid beta1-42 monomer
Description: (§2) The specific binding ability of the antibodies to the alpha-synuclein aggregate was analyzed by reacting with a blot.

[10] = target: T4, amyloid beta1-42 aggregates (UniProt P05067 672-713); assay: as above
T4 construct: domain: amyloid beta1-42; aggregates prepared by Prof; Seung-jae Lee; also called amyloid beta1-42-derived aggregates
Description: as §2

[11] = target: human alpha-synuclein monomer (human, UniProt P37840 1-140); assay: SPR (BIAcore), antibody captured on Protein A chip, alpha-Syn monomer as analyte, 1:1 binding fit to a flat sensorgram, 25 C
[12] = target: T5, human gamma-synuclein (human, UniProt O76070 1-127, limits assumed); assay: ELISA, human gamma-synuclein coated at 100 ng/ml
T5 construct: bought
Excerpt: (§3) For the positive control, RP-bound goat anti-rabbit was used as a detection antibody.

[13] = target: T6, human beta-synuclein (human, UniProt Q16143 1-134, limits assumed); assay: ELISA, human beta-synuclein coated at 100 ng/ml
T6 construct: bought
Excerpt: as §3

[14] = target: T7, human IGF1R extracellular domain, His-tagged (human, UniProt P08069 31-932); assay: ELISA on IGF1R protein, first experiment
T7 construct: Bought (R&D Systems 391-GR or Sino Biological 10164-H08H); also called recombinant IGF1R; ECD of IGF1R

[15] = target: T7, human IGF1R extracellular domain, …; assay: ELISA on IGF1R protein, third experiment
[16] = target: T7, human IGF1R extracellular domain, …; assay: ELISA on IGF1R protein, second experiment

T5 sequence (O76070 whole entry): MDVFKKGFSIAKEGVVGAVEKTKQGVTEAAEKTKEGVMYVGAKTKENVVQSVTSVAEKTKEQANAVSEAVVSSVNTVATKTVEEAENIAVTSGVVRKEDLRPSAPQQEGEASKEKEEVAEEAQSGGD
T2 sequence (P10636 other isoform, or with tags, fused parts or gaps limits assumed): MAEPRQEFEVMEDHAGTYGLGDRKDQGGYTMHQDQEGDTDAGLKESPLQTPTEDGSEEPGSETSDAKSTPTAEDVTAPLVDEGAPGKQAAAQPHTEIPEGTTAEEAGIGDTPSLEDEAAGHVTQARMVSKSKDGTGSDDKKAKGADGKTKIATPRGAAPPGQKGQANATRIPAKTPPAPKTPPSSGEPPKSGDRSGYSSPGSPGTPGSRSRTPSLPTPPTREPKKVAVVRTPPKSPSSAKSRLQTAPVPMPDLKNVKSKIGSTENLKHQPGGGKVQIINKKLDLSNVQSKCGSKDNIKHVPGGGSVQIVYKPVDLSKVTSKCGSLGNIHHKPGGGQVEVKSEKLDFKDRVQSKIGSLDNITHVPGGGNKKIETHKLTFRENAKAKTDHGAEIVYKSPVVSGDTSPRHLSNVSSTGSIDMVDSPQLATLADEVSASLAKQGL
T6 sequence (Q16143 whole entry): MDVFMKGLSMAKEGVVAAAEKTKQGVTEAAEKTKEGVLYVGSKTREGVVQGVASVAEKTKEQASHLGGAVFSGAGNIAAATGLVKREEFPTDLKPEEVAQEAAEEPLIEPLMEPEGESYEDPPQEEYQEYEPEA

B1: 11F11 (mouse monoclonal anti-alpha-synuclein antibody) (antibody, mouse IgG2b, V domains shown)
VH: EVQLQESGGGLVQPGGSLRLSCATSGFTFSDFYMEWVRQPPGKRLEWIAASRNKANDYTTEYSASVKGRFIVSRDTSQSILYLQMNALRAEDTAIYYCARDAHGKPFAYWGQGTLVTVSA
VL: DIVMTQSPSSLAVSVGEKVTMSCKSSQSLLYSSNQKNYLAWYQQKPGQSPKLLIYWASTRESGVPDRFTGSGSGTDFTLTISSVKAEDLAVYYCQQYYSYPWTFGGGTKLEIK
Kd [1]: 2.87 nM
EC50 [2]: 0.327 µg/mL and 2.18 nM
Kd [3]: 0.16 nM

B2: hu11F11(ver.1) (antibody, human IgG1, kappa, V domains shown)
VH: EVQLVESGGGLVQPGGSLRLSCATSGFTFSDFYMEWVRQPPGKRLEWIAASRNKANDYTTEYSASVKGRFTISRDDSKSSLYLQMNSLRAEDTAIYYCARDAHGKPFAYWGQGTTVTVSS
VL: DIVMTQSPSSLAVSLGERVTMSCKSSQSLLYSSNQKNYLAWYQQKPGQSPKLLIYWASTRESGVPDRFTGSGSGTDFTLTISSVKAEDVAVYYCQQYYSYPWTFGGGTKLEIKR
notes: humanized IgG1; also called Hu11F11-VH-v1 + Hu11F11-VLv3 4c
koff [4]: 5.36e-05 s⁻¹
kon [4]: 845000 M⁻¹ s⁻¹
EC50 [5]: 11.5 nM

B4: hu11F11(ver.4) (antibody, human IgG1, kappa, V domains shown)
VH: EVQLVESGGGLVQPGGSLRLSCATSGFTFSDFYMEWVRQPPGKRLEWIAASRNKANDYTTEYSASVKGRFTVSRDTSKSSLYLQMNSLRAEDTAIYYCARDAHGKPFAYWGQGTTVTVSS
VL: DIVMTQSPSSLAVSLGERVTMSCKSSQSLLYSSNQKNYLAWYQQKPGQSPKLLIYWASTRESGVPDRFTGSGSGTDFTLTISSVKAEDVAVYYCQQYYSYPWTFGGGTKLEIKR
notes: humanized IgG1; also called Hu11F11-VH-v4 + Hu11F11-VLv3 4c
koff [4]: 0.000291 s⁻¹
kon [4]: 1.07e+06 M⁻¹ s⁻¹
Kd [6]: 0.0204 nM
EC50 [5]: 12.9 nM

B5: chimeric 3A9 antibody (antibody, V domains shown)
VH: EVQLQESGGGLVKPGGSLKLSCAASGFTFSSYAMSWVRQTPEKRLEWVATISNGGGYTYYPDSVKGRFTISRDNAKNTLYLQMSSLRSEDTAMYYCARHITTVRPTKYFDYWGQGTTLTVSS
VL: DIVMTQSPKFMSTSVGDRVSITCKASQNVGTTVAWYQQKPGQSPKLLIYSASNRYTGVPDRFTGSGSGTDFTLTISNMQSEDLADYFCQQYSNYPLTFGAGTKLELR
notes: also called Ch 3A9; ch3A9
binding result [7]: no binding
koff [8]: 7.42e-05 s⁻¹
kon [8]: 631000 M⁻¹ s⁻¹
binding result [9]: no binding
binding result [10]: no binding
koff [11]: 0.00186 s⁻¹
binding result [12]: no binding
binding result [13]: no binding

B9: 1564 clone (anti-IGF1R antibody, format not stated) (antibody, V domains shown)
VH: EVQLLESGGGLVQPGGSLRLSCAASGFTFSSYDMSWVRQAPGKGLEWVSAISYDNGNTYYADSVKGRFTISRDNSKNTLYLQMNSLRAEDTAVYYCAKGVLTTLMNWFDYWGQGTLVTVSS
VL: QSVLTQPPSASGTPGQRVTISCTGSSSNIGSNDVSWYQQLPGTAPKLLIYANSNRPSGVPDRFSGSKSGTSASLAISGLRSEDEADYYCGAWDDSLNGYVFGGGTKLTVL
EC50 [14]: 2.15 nM
Saturation value [14]: 1.1
EC50 [15]: 6.87 nM
EC50 [16]: 2.66 nM
Saturation value [16]: 0.977

B11: 1564-VL(N51D) (antibody, V domains shown)
VH: EVQLLESGGGLVQPGGSLRLSCAASGFTFSSYDMSWVRQAPGKGLEWVSAISYDNGNTYYADSVKGRFTISRDNSKNTLYLQMNSLRAEDTAVYYCAKGVLTTLMNWFDYWGQGTLVTVSS
VL: QSVLTQPPSASGTPGQRVTISCTGSSSNIGSNDVSWYQQLPGTAPKLLIYADSNRPSGVSDRFSGSKSGTSASLAISGLRSEDEADYYCGAWDDSLNGYVFGGGTKLTVL
EC50 [15]: 7.35 nM

B12: 1564-VH(N54D) (antibody, V domains shown)
VH: EVQLLESGGGLVQPGGSLRLSCAASGFTFSSYDMSWVRQAPGKGLEWVSAISYDDGNTYYADSVKGRFTISRDNSKNTLYLQMNSLRAEDTAVYYCAKGVLTTLMNWFDYWGQGTLVTVSS
VL: QSVLTQPPSASGTPGQRVTISCTGSSSNIGSNDVSWYQQLPGTAPKLLIYANSNRPSGVPDRFSGSKSGTSASLAISGLRSEDEADYYCGAWDDSLNGYVFGGGTKLTVL
EC50 [16]: 2.89 nM
Saturation value [16]: 0.933

B14: 1564-VL(N95aD) (antibody, V domains shown)
VH: EVQLLESGGGLVQPGGSLRLSCAASGFTFSSYDMSWVRQAPGKGLEWVSAISYDNGNTYYADSVKGRFTISRDNSKNTLYLQMNSLRAEDTAVYYCAKGVLTTLMNWFDYWGQGTLVTVSS
VL: QSVLTQPPSASGTPGQRVTISCTGSSSNIGSNDVSWYQQLPGTAPKLLIYANSNRPSGVSDRFSGSKSGTSASLAISGLRSEDEADYYCGAWDDSLDGYVFGGGTKLTVL
EC50 [16]: 2.07 nM
Saturation value [16]: 0.896

Continued, values first:

kon [4]: 1.07e+06 M⁻¹ s⁻¹
Kd [6]: 0.0316 nM
EC50 [5]: 13.4 nM
B3: hu11F11(ver.3) (antibody, human IgG1, kappa, V domains shown)
VH: EVQLVESGGGLVQPGGSLRLSCATSGFTFSDFYMEWVRQPPGKRLEWIAASRNKANDYTTEYSASVKGRFTISRDTSKSSLYLQMNSLRAEDTAIYYCARDAHGKPFAYWGQGTTVTVSS
VL: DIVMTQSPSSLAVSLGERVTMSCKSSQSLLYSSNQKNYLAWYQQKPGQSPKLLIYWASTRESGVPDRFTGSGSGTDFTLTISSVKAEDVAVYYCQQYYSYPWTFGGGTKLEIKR
notes: humanized IgG1; also called Hu11F11-VH-v3 + Hu11F11-VLv3 4c

Kd [1]: 1.32 nM
EC50 [2]: 0.319 µg/mL and 2.13 nM
Kd [3]: 0.13 nM
B6: 3A9 (mouse monoclonal anti-alpha-synuclein antibody) (antibody, mouse IgG2b, V domains shown)
VH: EVQLQESGGGLVKPGGSLKLSCAASGFTFSSYAMSWVRQTPEKRLEWVATISNGGGYTYYPDSVKGRFTISRDNAKNTLYLQMSSLRSEDTAMYYCARHITTVRPTKYFDYWGQGTTLTVSS
VL: DIVMTQSPKFMSTSVGDRVSITCKASQNVGTTVAWYQQKPGQSPKLLIYSASNRYTGVPDRFTGSGSGTDFTLTISNMQSEDLADYFCQQYSNYPLTFGAGTKLELR

binding result [7]: no binding
koff [8]: 4.39e-05 s⁻¹
kon [8]: 629000 M⁻¹ s⁻¹
binding result [9]: no binding
binding result [10]: no binding
koff [11]: 0.000571 s⁻¹
kon [11]: 2210 M⁻¹ s⁻¹
binding result [12]: no binding
binding result [13]: no binding
B7: chimeric 9B11 antibody (antibody, V domains shown)
VH: EVQLQESGGGLVQPKGSLKLSCAASGFTFNTYAMNWVRQAPGKGLEWVARIRSKSNNYATYYADSVKDRFTISRDDSQSMLYLQMNNLKTEDTAMYYCVRQDFDYWGQGTTLTVSS
VL: DIVMTQSPLSLPVSLGDQASISCRSSQSLVHSNGNTYLHWYLQKPGQSPKLLIYKVSNRFSGVPDRFSGSGSGTDFTLKISRVEAEDLGVYFCSQSTHVPLTFGAGTKLEQK
notes: also called ch9B11; 9B11 (chimeric)

Kd [1]: 0.904 nM
EC50 [2]: 0.185 µg/mL and 1.23 nM
Kd [3]: 0.018 nM
B8: 9B11 (mouse monoclonal anti-alpha-synuclein antibody) (antibody, V domains shown)
VH: EVQLQESGGGLVQPKGSLKLSCAASGFTFNTYAMNWVRQAPGKGLEWVARIRSKSNNYATYYADSVKDRFTISRDDSQSMLYLQMNNLKTEDTAMYYCVRQDFDYWGQGTTLTVSS
VL: DIVMTQSPLSLPVSLGDQASISCRSSQSLVHSNGNTYLHWYLQKPGQSPKLLIYKVSNRFSGVPDRFSGSGSGTDFTLKISRVEAEDLGVYFCSQSTHVPLTFGAGTKLEQK

EC50 [14]: 2.63 nM
Saturation value [14]: 1.08
B10: 1564-VL(N95aH) (antibody, V domains shown)
VH: EVQLLESGGGLVQPGGSLRLSCAASGFTFSSYDMSWVRQAPGKGLEWVSAISYDNGNTYYADSVKGRFTISRDNSKNTLYLQMNSLRAEDTAVYYCAKGVLTTLMNWFDYWGQGTLVTVSS
VL: QSVLTQPPSASGTPGQRVTISCTGSSSNIGSNDVSWYQQLPGTAPKLLIYANSNRPSGVSDRFSGSKSGTSASLAISGLRSEDEADYYCGAWDDSLHGYVFGGGTKLTVL

EC50 [14]: 2.07 nM
Saturation value [14]: 1.18
B13: 1564-VL(N95aK) (antibody, V domains shown)
VH: EVQLLESGGGLVQPGGSLRLSCAASGFTFSSYDMSWVRQAPGKGLEWVSAISYDNGNTYYADSVKGRFTISRDNSKNTLYLQMNSLRAEDTAVYYCAKGVLTTLMNWFDYWGQGTLVTVSS
VL: QSVLTQPPSASGTPGQRVTISCTGSSSNIGSNDVSWYQQLPGTAPKLLIYANSNRPSGVSDRFSGSKSGTSASLAISGLRSEDEADYYCGAWDDSLKGYVFGGGTKLTVL

EC50 [16]: 2.2 nM
Saturation value [16]: 0.885
B15: 1564-VH(N54Q) (antibody, V domains shown)
VH: EVQLLESGGGLVQPGGSLRLSCAASGFTFSSYDMSWVRQAPGKGLEWVSAISYDQGNTYYADSVKGRFTISRDNSKNTLYLQMNSLRAEDTAVYYCAKGVLTTLMNWFDYWGQGTLVTVSS
VL: QSVLTQPPSASGTPGQRVTISCTGSSSNIGSNDVSWYQQLPGTAPKLLIYANSNRPSGVPDRFSGSKSGTSASLAISGLRSEDEADYYCGAWDDSLNGYVFGGGTKLTVL
